Test results as given in patent publication US20210171596A1 (published 2021).

T1: IL10R1-Fc (human, UniProt Q13651 22-235)
T1 chain: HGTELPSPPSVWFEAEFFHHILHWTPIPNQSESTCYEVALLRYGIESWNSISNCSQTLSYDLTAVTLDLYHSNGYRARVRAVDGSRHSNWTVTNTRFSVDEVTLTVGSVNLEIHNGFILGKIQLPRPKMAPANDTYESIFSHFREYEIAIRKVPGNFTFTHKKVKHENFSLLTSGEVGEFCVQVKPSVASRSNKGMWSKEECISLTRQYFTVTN

B1: XENP14246 (WT) (protein)
chain 1: EPKSSDKTHTCPPCPAPPVAGPSVFLFPPKPKDTLMISRTPEVTCVVVDVKHEDPEVKFNWYVDGVEVHNAKTKPREEEYNSTYRVVSVLTVLHQDWLNGKEYKCKVSNKALPAPIEKTISKAKGQPREPQVYTLPPSREEMTKNQVSLTCDVSGFYPSDIAVEWESDGQPENNYKTTPPVLDSDGSFFLYSKLTVDKSRWEQGDVFSCSVMHEALHNHYTQKSLSLSPGK
chain 2: SPGQGTQSENSCTHFPGNLPNMLRDLRDAFSRVKTFFQMKDQLDNLLLKESLLEDFKGYLGCQALSEMIQFYLEEVMPQAENQDPDIKAHVNSLGENLKTLRLRLRRCHRFLPCENGGGSGGKSKAVEQVKNAFNKLQEKGIYKAMSEFDIFINYIEAYMTMKIRNEPKSSDKTHTCPPCPAPPVAGPSVFLFPPKPKDTLMISRTPEVTCVVVDVKHEDPEVKFNWYVDGVEVHNAKTKPREEQYNSTYRVVSVLTVLHQDWLNGKEYKCKVSNKALPAPIEKTISKAKGQPREPQVYTLPPSREQMTKNQVKLTCLVKGFYPSDIAVEWESNGQPENNYKTTPPVLDSDGSFFLYSKLTVDKSRWQQGNVFSCSVMHEALHNHYTQKSLSLSPGK
B2: XENP25758 (Q42E) (protein)
chain 1: EPKSSDKTHTCPPCPAPPVAGPSVFLFPPKPKDTLMISRTPEVTCVVVDVKHEDPEVKFNWYVDGVEVHNAKTKPREEEYNSTYRVVSVLTVLHQDWLNGKEYKCKVSNKALPAPIEKTISKAKGQPREPQVYTLPPSREEMTKNQVSLTCDVSGFYPSDIAVEWESDGQPENNYKTTPPVLDSDGSFFLYSKLTVDKSRWEQGDVFSCSVMHEALHNHYTQKSLSLSPGK
chain 2: SPGQGTQSENSCTHFPGNLPNMLRDLRDAFSRVKTFFQMKDELDNLLLKESLLEDFKGYLGCQALSEMIQFYLEEVMPQAENQDPDIKAHVNSLGENLKTLRLRLRRCHRFLPCENGGGSGGKSKAVEQVKNAFNKLQEKGIYKAMSEFDIFINYIEAYMTMKIRNEPKSSDKTHTCPPCPAPPVAGPSVFLFPPKPKDTLMISRTPEVTCVVVDVKHEDPEVKFNWYVDGVEVHNAKTKPREEQYNSTYRVVSVLTVLHQDWLNGKEYKCKVSNKALPAPIEKTISKAKGQPREPQVYTLPPSREQMTKNQVKLTCLVKGFYPSDIAVEWESNGQPENNYKTTPPVLDSDGSFFLYSKLTVDKSRWQQGNVFSCSVMHEALHNHYTQKSLSLSPGK
B3: XENP25753 (N21D) (protein)
chain 1: EPKSSDKTHTCPPCPAPPVAGPSVFLFPPKPKDTLMISRTPEVTCVVVDVKHEDPEVKFNWYVDGVEVHNAKTKPREEEYNSTYRVVSVLTVLHQDWLNGKEYKCKVSNKALPAPIEKTISKAKGQPREPQVYTLPPSREEMTKNQVSLTCDVSGFYPSDIAVEWESDGQPENNYKTTPPVLDSDGSFFLYSKLTVDKSRWEQGDVFSCSVMHEALHNHYTQKSLSLSPGK
chain 2: SPGQGTQSENSCTHFPGNLPDMLRDLRDAFSRVKTFFQMKDQLDNLLLKESLLEDFKGYLGCQALSEMIQFYLEEVMPQAENQDPDIKAHVNSLGENLKTLRLRLRRCHRFLPCENGGGSGGKSKAVEQVKNAFNKLQEKGIYKAMSEFDIFINYIEAYMTMKIRNEPKSSDKTHTCPPCPAPPVAGPSVFLFPPKPKDTLMISRTPEVTCVVVDVKHEDPEVKFNWYVDGVEVHNAKTKPREEQYNSTYRVVSVLTVLHQDWLNGKEYKCKVSNKALPAPIEKTISKAKGQPREPQVYTLPPSREQMTKNQVKLTCLVKGFYPSDIAVEWESNGQPENNYKTTPPVLDSDGSFFLYSKLTVDKSRWQQGNVFSCSVMHEALHNHYTQKSLSLSPGK
B4: XENP25754 (D28N) (protein)
chain 1: EPKSSDKTHTCPPCPAPPVAGPSVFLFPPKPKDTLMISRTPEVTCVVVDVKHEDPEVKFNWYVDGVEVHNAKTKPREEEYNSTYRVVSVLTVLHQDWLNGKEYKCKVSNKALPAPIEKTISKAKGQPREPQVYTLPPSREEMTKNQVSLTCDVSGFYPSDIAVEWESDGQPENNYKTTPPVLDSDGSFFLYSKLTVDKSRWEQGDVFSCSVMHEALHNHYTQKSLSLSPGK
chain 2: SPGQGTQSENSCTHFPGNLPNMLRDLRNAFSRVKTFFQMKDQLDNLLLKESLLEDFKGYLGCQALSEMIQFYLEEVMPQAENQDPDIKAHVNSLGENLKTLRLRLRRCHRFLPCENGGGSGGKSKAVEQVKNAFNKLQEKGIYKAMSEFDIFINYIEAYMTMKIRNEPKSSDKTHTCPPCPAPPVAGPSVFLFPPKPKDTLMISRTPEVTCVVVDVKHEDPEVKFNWYVDGVEVHNAKTKPREEQYNSTYRVVSVLTVLHQDWLNGKEYKCKVSNKALPAPIEKTISKAKGQPREPQVYTLPPSREQMTKNQVKLTCLVKGFYPSDIAVEWESNGQPENNYKTTPPVLDSDGSFFLYSKLTVDKSRWQQGNVFSCSVMHEALHNHYTQKSLSLSPGK
B5: XENP25763 (I87A) (protein)
chain 1: EPKSSDKTHTCPPCPAPPVAGPSVFLFPPKPKDTLMISRTPEVTCVVVDVKHEDPEVKFNWYVDGVEVHNAKTKPREEEYNSTYRVVSVLTVLHQDWLNGKEYKCKVSNKALPAPIEKTISKAKGQPREPQVYTLPPSREEMTKNQVSLTCDVSGFYPSDIAVEWESDGQPENNYKTTPPVLDSDGSFFLYSKLTVDKSRWEQGDVFSCSVMHEALHNHYTQKSLSLSPGK
chain 2: SPGQGTQSENSCTHFPGNLPNMLRDLRDAFSRVKTFFQMKDQLDNLLLKESLLEDFKGYLGCQALSEMIQFYLEEVMPQAENQDPDAKAHVNSLGENLKTLRLRLRRCHRFLPCENGGGSGGKSKAVEQVKNAFNKLQEKGIYKAMSEFDIFINYIEAYMTMKIRNEPKSSDKTHTCPPCPAPPVAGPSVFLFPPKPKDTLMISRTPEVTCVVVDVKHEDPEVKFNWYVDGVEVHNAKTKPREEQYNSTYRVVSVLTVLHQDWLNGKEYKCKVSNKALPAPIEKTISKAKGQPREPQVYTLPPSREQMTKNQVKLTCLVKGFYPSDIAVEWESNGQPENNYKTTPPVLDSDGSFFLYSKLTVDKSRWQQGNVFSCSVMHEALHNHYTQKSLSLSPGK
B6: XENP25761 (N45D) (protein)
chain 1: EPKSSDKTHTCPPCPAPPVAGPSVFLFPPKPKDTLMISRTPEVTCVVVDVKHEDPEVKFNWYVDGVEVHNAKTKPREEEYNSTYRVVSVLTVLHQDWLNGKEYKCKVSNKALPAPIEKTISKAKGQPREPQVYTLPPSREEMTKNQVSLTCDVSGFYPSDIAVEWESDGQPENNYKTTPPVLDSDGSFFLYSKLTVDKSRWEQGDVFSCSVMHEALHNHYTQKSLSLSPGK
chain 2: SPGQGTQSENSCTHFPGNLPNMLRDLRDAFSRVKTFFQMKDQLDDLLLKESLLEDFKGYLGCQALSEMIQFYLEEVMPQAENQDPDIKAHVNSLGENLKTLRLRLRRCHRFLPCENGGGSGGKSKAVEQVKNAFNKLQEKGIYKAMSEFDIFINYIEAYMTMKIRNEPKSSDKTHTCPPCPAPPVAGPSVFLFPPKPKDTLMISRTPEVTCVVVDVKHEDPEVKFNWYVDGVEVHNAKTKPREEQYNSTYRVVSVLTVLHQDWLNGKEYKCKVSNKALPAPIEKTISKAKGQPREPQVYTLPPSREQMTKNQVKLTCLVKGFYPSDIAVEWESNGQPENNYKTTPPVLDSDGSFFLYSKLTVDKSRWQQGNVFSCSVMHEALHNHYTQKSLSLSPGK
B7: XENP25756 (M39T) (protein)
chain 1: EPKSSDKTHTCPPCPAPPVAGPSVFLFPPKPKDTLMISRTPEVTCVVVDVKHEDPEVKFNWYVDGVEVHNAKTKPREEEYNSTYRVVSVLTVLHQDWLNGKEYKCKVSNKALPAPIEKTISKAKGQPREPQVYTLPPSREEMTKNQVSLTCDVSGFYPSDIAVEWESDGQPENNYKTTPPVLDSDGSFFLYSKLTVDKSRWEQGDVFSCSVMHEALHNHYTQKSLSLSPGK
chain 2: SPGQGTQSENSCTHFPGNLPNMLRDLRDAFSRVKTFFQTKDQLDNLLLKESLLEDFKGYLGCQALSEMIQFYLEEVMPQAENQDPDIKAHVNSLGENLKTLRLRLRRCHRFLPCENGGGSGGKSKAVEQVKNAFNKLQEKGIYKAMSEFDIFINYIEAYMTMKIRNEPKSSDKTHTCPPCPAPPVAGPSVFLFPPKPKDTLMISRTPEVTCVVVDVKHEDPEVKFNWYVDGVEVHNAKTKPREEQYNSTYRVVSVLTVLHQDWLNGKEYKCKVSNKALPAPIEKTISKAKGQPREPQVYTLPPSREQMTKNQVKLTCLVKGFYPSDIAVEWESNGQPENNYKTTPPVLDSDGSFFLYSKLTVDKSRWQQGNVFSCSVMHEALHNHYTQKSLSLSPGK
B8: XENP25760 (D44N) (protein)
chain 1: EPKSSDKTHTCPPCPAPPVAGPSVFLFPPKPKDTLMISRTPEVTCVVVDVKHEDPEVKFNWYVDGVEVHNAKTKPREEEYNSTYRVVSVLTVLHQDWLNGKEYKCKVSNKALPAPIEKTISKAKGQPREPQVYTLPPSREEMTKNQVSLTCDVSGFYPSDIAVEWESDGQPENNYKTTPPVLDSDGSFFLYSKLTVDKSRWEQGDVFSCSVMHEALHNHYTQKSLSLSPGK
chain 2: SPGQGTQSENSCTHFPGNLPNMLRDLRDAFSRVKTFFQMKDQLNNLLLKESLLEDFKGYLGCQALSEMIQFYLEEVMPQAENQDPDIKAHVNSLGENLKTLRLRLRRCHRFLPCENGGGSGGKSKAVEQVKNAFNKLQEKGIYKAMSEFDIFINYIEAYMTMKIRNEPKSSDKTHTCPPCPAPPVAGPSVFLFPPKPKDTLMISRTPEVTCVVVDVKHEDPEVKFNWYVDGVEVHNAKTKPREEQYNSTYRVVSVLTVLHQDWLNGKEYKCKVSNKALPAPIEKTISKAKGQPREPQVYTLPPSREQMTKNQVKLTCLVKGFYPSDIAVEWESNGQPENNYKTTPPVLDSDGSFFLYSKLTVDKSRWQQGNVFSCSVMHEALHNHYTQKSLSLSPGK
B9: XENP25759 (L43V) (protein)
chain 1: EPKSSDKTHTCPPCPAPPVAGPSVFLFPPKPKDTLMISRTPEVTCVVVDVKHEDPEVKFNWYVDGVEVHNAKTKPREEEYNSTYRVVSVLTVLHQDWLNGKEYKCKVSNKALPAPIEKTISKAKGQPREPQVYTLPPSREEMTKNQVSLTCDVSGFYPSDIAVEWESDGQPENNYKTTPPVLDSDGSFFLYSKLTVDKSRWEQGDVFSCSVMHEALHNHYTQKSLSLSPGK
chain 2: SPGQGTQSENSCTHFPGNLPNMLRDLRDAFSRVKTFFQMKDQVDNLLLKESLLEDFKGYLGCQALSEMIQFYLEEVMPQAENQDPDIKAHVNSLGENLKTLRLRLRRCHRFLPCENGGGSGGKSKAVEQVKNAFNKLQEKGIYKAMSEFDIFINYIEAYMTMKIRNEPKSSDKTHTCPPCPAPPVAGPSVFLFPPKPKDTLMISRTPEVTCVVVDVKHEDPEVKFNWYVDGVEVHNAKTKPREEQYNSTYRVVSVLTVLHQDWLNGKEYKCKVSNKALPAPIEKTISKAKGQPREPQVYTLPPSREQMTKNQVKLTCLVKGFYPSDIAVEWESNGQPENNYKTTPPVLDSDGSFFLYSKLTVDKSRWQQGNVFSCSVMHEALHNHYTQKSLSLSPGK

Target: T1, IL10R1-Fc
Assay: BLI

Row | Binder | Kd
1 | B1 | 5.05 nM
2 | B2 | 7.3 nM
3 | B3 | 8.14 nM
4 | B4 | 3.86 nM
5 | B5 | 14.4 nM
6 | B6 | 10.6 nM
7 | B7 | 4.76 nM
8 | B8 | 1.23 nM
9 | B9 | 16.4 nM
